The test system of this series is MBP-CIRTS-1 (ORF5-TBP6.7-SMG6 Pin nuclease fusion) (synthetic fusion (Grapevine virus A ORF5; Homo sapiens U1A-derived TBP6.7; Homo sapiens SMG6)). The experiment in a line: FP filter. The settings on record: apparent; text states ~50-fold weaker than on-target.

The source of these data is US20220048962.

For “non-targeting TAR-hairpin gRNA ; model RNA substrate (R1)”, the Kd stood at 500 nM.
